Assay results taken from the supplement of paper PMC9112550, “Optimization of the antimicrobial peptide Bac7 by deep mutational scanning” (BMC Biology, 2022).

Test system: Escherichia coli TOP10
Assay: shrunken log2 fold change of peptide-encoding DNA abundance (4.5 h post-induction vs induction); higher = less antimicrobial activity (less host growth inhibition)
Conditions: time post-induction: 4.5 h; library: site-saturation at positions 5, 18, 19, 20
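Also: peptides expressed intracellularly from a pBAD plasmid library in pooled LB shake-flask culture, induced with 0.3% L-arabinose, DNA abundance read by NGS, three biological replicates, DESeq2 with apeglm shrinkage.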

Sequence | shrunken log2 fold change
RRIRMRPPRLPRPRPRPEFEPRP | -0.0141
RRIRMRPPRLPRPRPRPLCRPRP | 0.359
RRIRPRPPRLPRPRPRPMHQPRP | 0.059
RRIRTRPPRLPRPRPRPYVFPRP | -0.394
RRIRPRPPRLPRPRPRPEFHPRP | -0.0272
RRIRSRPPRLPRPRPRPWYIPRP | -0.314
RRIRWRPPRLPRPRPRPQCCPRP | -0.0128
RRIRVRPPRLPRPRPRPVCGPRP | 0.211
RRIRCRPPRLPRPRPRPADTPRP | -0.0286
RRIRGRPPRLPRPRPRPHNHPRP | -0.27
RRIRPRPPRLPRPRPRPVFHPRP | -0.178
RRIRKRPPRLPRPRPRPTIMPRP | -0.0223
RRIRCRPPRLPRPRPRPTIEPRP | -0.276
RRIRSRPPRLPRPRPRPTQGPRP | 0.36
RRIRVRPPRLPRPRPRPFWVPRP | 0.421
RRIRNRPPRLPRPRPRPKNTPRP | -0.462
RRIRQRPPRLPRPRPRPFWPPRP | 0.083
RRIRIRPPRLPRPRPRPDNNPRP | -0.376
RRIRPRPPRLPRPRPRPMCKPRP | -0.274
RRIRKRPPRLPRPRPRPPWNPRP | 0.136
RRIRNRPPRLPRPRPRPKSPPRP | 0.205
RRIRCRPPRLPRPRPRPNYDPRP | -0.672
RRIRNRPPRLPRPRPRPADRPRP | -0.00994
RRIRARPPRLPRPRPRPQMIPRP | 0.181
RRIRARPPRLPRPRPRPSYEPRP | -0.069

Sequence | shrunken log2 fold change
RRIRFRPPRLPRPRPRPECGPRP | 0.175
RRIRYRPPRLPRPRPRPPVQPRP | -0.0548
RRIRGRPPRLPRPRPRPNKDPRP | 0.179
RRIRPRPPRLPRPRPRPWQVPRP | -0.0573
RRIRHRPPRLPRPRPRPGFRPRP | 0.237
RRIRRRPPRLPRPRPRPHITPRP | -0.385
RRIRFRPPRLPRPRPRPTSVPRP | -0.0668
RRIRCRPPRLPRPRPRPKELPRP | -0.000896
RRIRKRPPRLPRPRPRPQKCPRP | 0.00165
RRIRIRPPRLPRPRPRPMCQPRP | 0.0317
RRIRVRPPRLPRPRPRPKRWPRP | 0.706
RRIRGRPPRLPRPRPRPSINPRP | -0.0752
RRIRFRPPRLPRPRPRPQEPPRP | 0.436
RRIRERPPRLPRPRPRPAMFPRP | -1.09
RRIRKRPPRLPRPRPRPTNFPRP | 0.111
RRIRHRPPRLPRPRPRPTPDPRP | 0.134
RRIRCRPPRLPRPRPRPPPKPRP | 1.51
RRIRMRPPRLPRPRPRPSLDPRP | 0.663
RRIRVRPPRLPRPRPRPAQFPRP | 0.341
RRIRWRPPRLPRPRPRPRNKPRP | 0.0794
RRIRKRPPRLPRPRPRPVCLPRP | 0.0948
RRIRWRPPRLPRPRPRPKRRPRP | 0.0884
RRIRCRPPRLPRPRPRPHDYPRP | -0.482
RRIRKRPPRLPRPRPRPVGWPRP | 0.897
RRIRERPPRLPRPRPRPFFFPRP | 0.0253

Sequence | shrunken log2 fold change
RRIRTRPPRLPRPRPRPCSKPRP | -0.074
RRIRIRPPRLPRPRPRPMTAPRP | -0.2
RRIRFRPPRLPRPRPRPCSAPRP | -0.103
RRIRDRPPRLPRPRPRPFNAPRP | -0.0419
RRIRNRPPRLPRPRPRPSYDPRP | -0.452
RRIRLRPPRLPRPRPRPRHTPRP | -0.236
RRIRLRPPRLPRPRPRPNEKPRP | -0.00697
RRIRPRPPRLPRPRPRPCMVPRP | -0.423
RRIRGRPPRLPRPRPRPVDGPRP | 0.587
RRIRSRPPRLPRPRPRPRAEPRP | 0.492
RRIRVRPPRLPRPRPRPFLHPRP | -0.13
RRIRSRPPRLPRPRPRPFEIPRP | 0.0385
RRIRYRPPRLPRPRPRPYTHPRP | -0.508
RRIRWRPPRLPRPRPRPMLDPRP | 0.426
RRIRYRPPRLPRPRPRPEIAPRP | -0.185
RRIRIRPPRLPRPRPRPAMCPRP | -0.182
RRIRLRPPRLPRPRPRPGWRPRP | 0.317
RRIRKRPPRLPRPRPRPSYCPRP | -0.251
RRIRSRPPRLPRPRPRPPMPPRP | 0.486
RRIRNRPPRLPRPRPRPDFSPRP | -0.0911
RRIRERPPRLPRPRPRPKSKPRP | -0.19
RRIRCRPPRLPRPRPRPHYGPRP | -0.189
RRIRKRPPRLPRPRPRPKSGPRP | 0.0187
RRIRTRPPRLPRPRPRPTMRPRP | 0.867
RRIRCRPPRLPRPRPRPFSLPRP | -0.239
